The source of these data is PMC10543426, “The PALB2 DNA-binding domain is an intrinsically disordered recombinase” (Research Square, 2023).

Series [1] has as its target PALB2 coiled-coil (Homo sapiens) (UniProt Q86YC2). As to the kind of experiment: NMR titration. Conditions: cited from earlier work.
Series [2] deals with T1, PALB2-DBD (Homo sapiens, UniProt Q86YC2 1-195, I195W).
T1 sequence: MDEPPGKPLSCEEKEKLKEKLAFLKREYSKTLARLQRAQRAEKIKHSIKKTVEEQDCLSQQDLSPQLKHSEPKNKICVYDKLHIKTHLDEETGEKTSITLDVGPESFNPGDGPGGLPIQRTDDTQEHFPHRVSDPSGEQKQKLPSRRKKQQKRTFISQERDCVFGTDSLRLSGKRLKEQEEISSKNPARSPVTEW
Kind of series: smFRET; mean FRET 0.18 free, 0.45 and 0.79 bound; AUC of DNA complexes: 0.1 M NaCl, 20 C; smFRET, EPR and CD buffers not in the material. The settings on record: protein: recombinant; tags: 6xHis-SUMO and MBP, cleaved by Ulp1/TEV; chain copies: 2; label: 5' Cy3, Cy5 at position 50; single strand.

The target of series [3] is T1, PALB2-DBD. Kind of series: analytical ultracentrifugation; DNA:protein 1:2 and 1:4; 0.1 M NaCl; AUC of DNA complexes: 0.1 M NaCl, 20 C; smFRET, EPR and CD buffers not in the material. Conditions: protein: recombinant; tags: 6xHis-SUMO and MBP, cleaved by Ulp1/TEV; chain copies: 2; label: Cy3; single strand.
Series [4] deals with T1, PALB2-DBD. As to the kind of experiment: analytical ultracentrifugation; DNA:protein 1:2 and 1:4; no free DNA peak; 0.1 M NaCl; AUC of DNA complexes: 0.1 M NaCl, 20 C; smFRET, EPR and CD buffers not in the material. Conditions: protein: recombinant; tags: 6xHis-SUMO and MBP, cleaved by Ulp1/TEV; chain copies: 2; label: 5' Cy3; single strand.
Series [5] deals with the molecule itself. Kind of series: AUC; sedimentation velocity with Cy3-labelled ssDNA (Cy3-dT50 or Cy3-dT25), DNA:protein molar ratios 1:2 and 1:4 (4 and 8 μM protein), 0.1 M NaCl, 10% glycerol, 1 mM TCEP, 2 mM CHAPS, 25 mM HEPES pH 7.5, 20°C, absorbance at 550 nm; dimers to tetramer.
Series [6] deals with the molecule itself. Kind of series: AUC; sedimentation velocity, protein alone; 1 M NaCl, 10% glycerol, 1 mM TCEP, 2 mM CHAPS, 25 mM HEPES pH 7.5; 30,000 rpm, 20°C, absorbance at 280 nm; relatively high protein concentration.

In the case of PALB2 coiled-coil (from UniProt Q86YC2), the dissociation constant (Kd) in series [1] was 80 µM.

B1: Cy3-dT50-Cy5 (ssDNA)
DNA: TTTTTTTTTTTTTTTTTTTTTTTTTTTTTTTTTTTTTTTTTTTTTTTTTT
For B1, in series [2], the binding result was “binds”.

B2: Cy3-dT50 (ssDNA)
DNA: TTTTTTTTTTTTTTTTTTTTTTTTTTTTTTTTTTTTTTTTTTTTTTTTTT
Regarding B2, the binding result in series [3] was “binds”.

B3: Cy3-dT25 (25mer) (ssDNA)
DNA: TGGCGACGGCAGCGAGGCTCTCTAC
On to B3, for which the binding result in series [4] is given as “binds”.

B4: PALB2 DNA-binding domain (PALB2-DBD), N-terminal fragment 1-195 I195W (domain or fragment, human, UniProt Q86YC2 1-195, looked up)
chain: MDEPPGKPLSCEEKEKLKEKLAFLKREYSKTLARLQRAQRAEKIKHSIKKTVEEQDCLSQQDLSPQLKHSEPKNKICVYDKLHIKTHLDEETGEKTSITLDVGPESFNPGDGPGGLPIQRTDDTQEHFPHRVSDPSGEQKQKLPSRRKKQQKRTFISQERDCVFGTDSLRLSGKRLKEQEEISSKNPARSPVTEW
notes: Partner and Localizer of BRCA2 (PALB2), human, amino acids 1-195; the last amino acid mutated to tryptophan to increase absorption at 280 nm; SUMO cleaved with Ulp1 and MBP with TEV protease; also called PLAB2-DBD; source: E. coli BL21*, purified (amylose resin, heparin, gel filtration); not shown: 6×His-SUMO, N-terminal, cleaved; MBP, C-terminal, cleaved
Regarding B4, the “stoichiometry N” value in series [5] is 4; in series [6] it was 2.

In general, Kd refers to the constant that tells how readily two partners part at equilibrium. The stoichiometry N is a count of units in the complex or per binding partner.
